Experimental findings from patent publication US20200282021A1 (GENEXINE, published 2020) are described below.

The target in assay [1] is T1, human GLP-1 receptor (Abcam) (human, UniProt P43220 24-145, limits assumed).
T1 construct: Bought recombinant protein
Kind of assay: SPR (Proteon XPR36), human GLP-1 receptor immobilised. As to the method: (§1) Binding affinity of each TAs were evaluated by SPR (Proteon XPR36, BIO-RAD) and based on the protocol modified from general procedure of SPR analysis in published paper. Specifically, the proteon GLC chip (BIO-RAD, USA) was stabilized with PBST (PBS+0.01% tween 20, pH 7.4). Stabilized GLC chip was activated with 150 uL of Sulfo-NHS (0.001 M) and EDC (0.04M) (1:1) followed by immobilization of 10 ug/mL human GLP-1 receptor (Abcam, UK) diluted in acetate buffer (pH 5.0). After immobilization level was recorded and deactivation by 1 M Ethanolamine-HCl (pH 8.5), different concentrations of Dulaglutide and GLP-1-gFc (0, 1.25, 2.5, 5, 10 uM) were injected to each channel of chip. Chip was regenerated by 25 mM NaOH and checked ‘Zero base’ before repeated analysis of same molecule or other TA. All binding sesorgrams were collected, processed, and analyzed using the integrated Proteon Manager software (Bio-RAD, USA). Binding curves were fitted using the Laugmuir model.

For assay [2], the target named is T1, human GLP-1 receptor (Abcam). Kind of assay: SPR (Proteon XPR36), human GLP-1 receptor immobilised, analyte 0-10 uM, Langmuir fit. As to the method:
as §1

In assay [3] the target is GLP-1 receptor expressed on the transgenic cell line GLP1R_cAMP/luc. Briefly: cell-based or functional assay.

By Kd is commonly meant the concentration at which binding is half-saturated. Higher therefore signals a looser complex.

B1: GLP-1(A2G)-hyFc9 (Fc fusion)
chain: HGEGTFTSDVSSYLEGQAAKEFIAWLVKGRGAKATTAPATTRNTGRGGEEKKKEKEKEEQEERETKTPECPSHTQPLGVFLFPPKPKDTLMISRTPEVTCVVVDVSQEDPEVQFNWYVDGVEVHNAKTKPREEQFNSTYRVVSVLTVLHQDWLNGKEYKCKVSNKGLPSSIEKTISKAKGQPREPQVYTLPPSQEEMTKNQVSLTCLVKGFYPSDIAVEWESNGQPENNYKTTPPVLDSDGSFFLYSRLTVDKSRWQEGNVFSCSVMHEALHNHYTQKSLSLSLGK
modifications: O-glycosylation at the IgD hinge region (positions not stated)
notes: also called GLP-1-gFc; GLP-1-hyFc9
As to B1, in assay [1], the “fold koff against Dulaglutide” value is ~10 fold and the “fold kon against Dulaglutide” value stood at 1.7 fold. Besides, the Kd in assay [2] came out at 16 µM. For the same molecule, in assay [3], the “EC50, cAMP-dependent luciferase reporter in GLP-1R over-expressing cells” value is 23.3 pM and the “fold difference of EC50 against Dulaglutide, cAMP-dependent luciferase reporter” value amounted to 3.5 fold.
